What was measured:
Assay in all cases: cell-based or functional assay
[1] = biological target: HIV-1 AD8 envelope glycoprotein (Env) (HIV-1 strain AD8)
[2] = biological target: HIV-1 IIIB envelope glycoprotein (Env) (HIV-1 strain IIIB)
[3] = biological target: HIV-1 JR-FL envelope glycoprotein (Env) (HIV-1 strain JR-FL)

| Substance | Neutralizing activity (percentage) at 100 µg/mL [1] [%] | percentage of maximal infection, U87.CD4.CCR5.CXCR4 cells, 100 µg/mL antibody [1] [%] | Neutralizing activity (percentage) at 100 µg/mL [2] [%] | percentage of maximal infection, U87.CD4.CCR5.CXCR4 cells, 100 µg/mL antibody [2] [%] | Neutralizing activity (percentage) at 100 µg/mL [3] [%] | percentage of maximal infection, U87.CD4.CCR5.CXCR4 cells, 100 µg/mL antibody [3] [%] |
| --- | --- | --- | --- | --- | --- | --- |
| Fab X5 | 97 | 8.7 | 100 | 10 | 83 | 27 |
| IgG1 X5 (antibody) | 51 | 55 | 84 | 28 | 38 | 72 |

— patent publication US20070212363A1
